{"source": "patent US20100233678", "data": [{"test_system": "IgG, polyclonal (Mus musculus)", "test": "FP", "conditions": "10 nM DNA, 1 uM IgG, PBS pH 7.0, 45 min", "values": [{"sequence": "AGGCCGCGCCCCCCGCGCCCACCGCCCCGGTGCC [RAD29]", "binding signal (% polarization change)": 19}, {"sequence": "GGAGGTGCTCCGAAAGGAACTCC [RAD30]", "binding signal (% polarization change)": 15}, {"sequence": "TCCCTTTCCCTTTCCCTTTCCC [RAD28]", "binding signal (% polarization change)": 22}, {"sequence": "TCCTCTTCTTTTTCTTCTC [RAD24]", "binding signal (% polarization change)": 21}, {"sequence": "TCCTTTCCTTTCCTTTCCT [RAD27]", "binding signal (% polarization change)": 22}, {"sequence": "TCTCTCTCTCTCTCTCTCT [RAD26]", "binding signal (% polarization change)": 38}, {"sequence": "TTCCTTCCTTCCTTCCTTC [RAD25]", "binding signal (% polarization change)": 22}]}, {"test_system": "IgA, monoclonal (Homo sapiens)", "test": "filter", "conditions": "37.5 mM NaCl, 3.75 mM sodium citrate, pH 6.0", "values": [{"sequence": "CCCTCCCTGGGCTTTTTTTGATTTTTCTTAA [RAD4]", "Ka (log10 Ka (M-1))": 7.66}, {"sequence": "CCTCTTCTTTTTCTTCTC [RAD20]", "Ka (log10 Ka (M-1))": 7.53}, {"sequence": "CCTCTTCTTTTTCTTCTCCTTTTTGGAGAAG [RAD2]", "Ka (log10 Ka (M-1))": 6.9}, {"sequence": "CCTTCCTTTGGAAGGTTG [RAD23]", "Ka (log10 Ka (M-1))": 6.38}, {"sequence": "CTCTCTCTTTTTCTCTCTCTTTTTGAGAGAG [RAD9]", "Ka (log10 Ka (M-1))": 6.95}, {"sequence": "GAGAGAGTTTTTGAGAGAGTTTTTCTCTCTC [RAD7]", "Ka (log10 Ka (M-1))": 7.33}]}, {"test_system": "IgG Fab2 fragment (Homo sapiens)", "test": "filter", "conditions": "37.5 mM NaCl, 3.75 mM sodium citrate, pH 6.0", "values": [{"sequence": "CCCTCCCTGGGCTTTTTTTGATTTTTCTTAA [RAD4]", "Ka (log10 Ka (M-1))": 6.89}, {"sequence": "CCTCTTCTTTTTCTTCTC [RAD20]", "Ka (log10 Ka (M-1))": 6.9}, {"sequence": "CCTCTTCTTTTTCTTCTCCTTTTTGGAGAAG [RAD2]", "Ka (log10 Ka (M-1))": 6.45}, {"sequence": "CCTTCCTTTGGAAGGTTG [RAD23]", "Ka (log10 Ka (M-1))": 5.64}, {"sequence": "CTCTCTCTTTTTCTCTCTCTTTTTGAGAGAG [RAD9]", "Ka (log10 Ka (M-1))": 6.44}, {"sequence": "GAGAGAGTTTTTGAGAGAGTTTTTCTCTCTC [RAD7]", "Ka (log10 Ka (M-1))": 6.68}]}, {"test_system": "IgG Fab2 fragment (Mus musculus)", "test": "filter", "conditions": "37.5 mM NaCl, 3.75 mM sodium citrate, pH 6.0", "values": [{"sequence": "CCCTCCCTGGGCTTTTTTTGATTTTTCTTAA [RAD4]", "Ka (log10 Ka (M-1))": 7.09}, {"sequence": "CCTCTTCTTTTTCTTCTC [RAD20]", "Ka (log10 Ka (M-1))": 7.41}, {"sequence": "CCTCTTCTTTTTCTTCTCCTTTTTGGAGAAG [RAD2]", "Ka (log10 Ka (M-1))": 6.71}, {"sequence": "CCTTCCTTTGGAAGGTTG [RAD23]", "Ka (log10 Ka (M-1))": 6.33}, {"sequence": "CTCTCTCTTTTTCTCTCTCTTTTTGAGAGAG [RAD9]", "Ka (log10 Ka (M-1))": 6.75}, {"sequence": "GAGAGAGTTTTTGAGAGAGTTTTTCTCTCTC [RAD7]", "Ka (log10 Ka (M-1))": 6.97}]}, {"test_system": "IgG Fc fragment (Homo sapiens)", "test": "filter", "conditions": "37.5 mM NaCl, 3.75 mM sodium citrate, pH 6.0", "values": [{"sequence": "CCCTCCCTGGGCTTTTTTTGATTTTTCTTAA [RAD4]", "Ka (log10 Ka (M-1))": 5.26}, {"sequence": "CCTCTTCTTTTTCTTCTC [RAD20]", "Ka (log10 Ka (M-1))": 5.96}, {"sequence": "CCTCTTCTTTTTCTTCTCCTTTTTGGAGAAG [RAD2]", "Ka (log10 Ka (M-1))": 5.86}, {"sequence": "CTCTCTCTTTTTCTCTCTCTTTTTGAGAGAG [RAD9]", "Ka (log10 Ka (M-1))": 5.87}, {"sequence": "GAGAGAGTTTTTGAGAGAGTTTTTCTCTCTC [RAD7]", "Ka (log10 Ka (M-1))": 5.99}]}, {"test_system": "IgG, polyclonal (ChromPure) (Homo sapiens)", "test": "filter", "conditions": "ultrafiltration, 41 mM Na+, pH 6; pH 5 7.37, pH 7 6.31, pH 8 6.21", "values": [{"sequence": "CCTTCCTTTGGAAGGTTG [RAD23]", "Ka (log10 Ka (M-1))": 6.88}]}, {"test_system": "IgG, polyclonal (ChromPure) (Homo sapiens)", "test": "filter", "conditions": "ultrafiltration, 41 mM Na+, pH 6; pH 5 8.11, pH 7 7.40, pH 8 6.64", "values": [{"sequence": "CCTCTTCTTTTTCTTCTC [RAD20]", "Ka (log10 Ka (M-1))": 7.98}]}, {"test_system": "IgG, polyclonal (ChromPure) (Homo sapiens)", "test": "filter", "conditions": "ultrafiltration, 41 mM Na+, pH 6; pH 5 8.48, pH 7 7.10, pH 8 7.02", "values": [{"sequence": "CCCTCCCTGGGCTTTTTTTGATTTTTCTTAA [RAD4]", "Ka (log10 Ka (M-1))": 8.13}]}, {"test_system": "IgG, polyclonal (ChromPure) (Homo sapiens)", "test": "filter", "conditions": "ultrafiltration, 41 mM Na+, pH 6; pH 5 8.51, pH 7 6.97, pH 8 6.79", "values": [{"sequence": "GAGAGAGTTTTTGAGAGAGTTTTTCTCTCTC [RAD7]", "Ka (log10 Ka (M-1))": 8.04}]}, {"test_system": "IgG, polyclonal (ChromPure) (Homo sapiens)", "test": "filter", "conditions": "ultrafiltration, 41 mM Na+, pH 6; pH 5 8.67, pH 7 7.04, pH 8 6.94", "values": [{"sequence": "CTCTCTCTTTTTCTCTCTCTTTTTGAGAGAG [RAD9]", "Ka (log10 Ka (M-1))": 7.74}]}, {"test_system": "IgG, polyclonal (ChromPure) (Homo sapiens)", "test": "filter", "conditions": "ultrafiltration, 41 mM Na+, pH 6; pH 5 8.74, pH 7 6.96, pH 8 6.57", "values": [{"sequence": "CCTCTTCTTTTTCTTCTCCTTTTTGGAGAAG [RAD2]", "Ka (log10 Ka (M-1))": 7.61}]}, {"test_system": "IgG, polyclonal (Mus musculus)", "test": "filter", "conditions": "37.5 mM NaCl, 3.75 mM sodium citrate, pH 6.0", "values": [{"sequence": "CCCTCCCTGGGCTTTTTTTGATTTTTCTTAA [RAD4]", "Ka (log10 Ka (M-1))": 7.71}, {"sequence": "CCTCTTCTTTTTCTTCTC [RAD20]", "Ka (log10 Ka (M-1))": 8.3}, {"sequence": "CCTCTTCTTTTTCTTCTCCTTTTTGGAGAAG [RAD2]", "Ka (log10 Ka (M-1))": 7.49}, {"sequence": "CCTTCCTTTGGAAGGTTG [RAD23]", "Ka (log10 Ka (M-1))": 6.77}, {"sequence": "CTCTCTCTTTTTCTCTCTCTTTTTGAGAGAG [RAD9]", "Ka (log10 Ka (M-1))": 7.46}, {"sequence": "GAGAGAGTTTTTGAGAGAGTTTTTCTCTCTC [RAD7]", "Ka (log10 Ka (M-1))": 7.69}]}, {"test_system": "IgG1, monoclonal (Homo sapiens)", "test": "filter", "conditions": "37.5 mM NaCl, 3.75 mM sodium citrate, pH 6.0", "values": [{"sequence": "CCCTCCCTGGGCTTTTTTTGATTTTTCTTAA [RAD4]", "Ka (log10 Ka (M-1))": 7.52}, {"sequence": "CCTCTTCTTTTTCTTCTC [RAD20]", "Ka (log10 Ka (M-1))": 7.34}, {"sequence": "CCTCTTCTTTTTCTTCTCCTTTTTGGAGAAG [RAD2]", "Ka (log10 Ka (M-1))": 7.04}, {"sequence": "CCTTCCTTTGGAAGGTTG [RAD23]", "Ka (log10 Ka (M-1))": 6.14}, {"sequence": "CTCTCTCTTTTTCTCTCTCTTTTTGAGAGAG [RAD9]", "Ka (log10 Ka (M-1))": 7.05}, {"sequence": "GAGAGAGTTTTTGAGAGAGTTTTTCTCTCTC [RAD7]", "Ka (log10 Ka (M-1))": 7.3}]}, {"test_system": "IgG2, monoclonal (Homo sapiens)", "test": "filter", "conditions": "37.5 mM NaCl, 3.75 mM sodium citrate, pH 6.0", "values": [{"sequence": "CCCTCCCTGGGCTTTTTTTGATTTTTCTTAA [RAD4]", "Ka (log10 Ka (M-1))": 7.67}, {"sequence": "CCTCTTCTTTTTCTTCTC [RAD20]", "Ka (log10 Ka (M-1))": 7.85}, {"sequence": "CCTCTTCTTTTTCTTCTCCTTTTTGGAGAAG [RAD2]", "Ka (log10 Ka (M-1))": 7.06}, {"sequence": "CCTTCCTTTGGAAGGTTG [RAD23]", "Ka (log10 Ka (M-1))": 6.86}, {"sequence": "CTCTCTCTTTTTCTCTCTCTTTTTGAGAGAG [RAD9]", "Ka (log10 Ka (M-1))": 7.05}, {"sequence": "GAGAGAGTTTTTGAGAGAGTTTTTCTCTCTC [RAD7]", "Ka (log10 Ka (M-1))": 7.25}]}, {"test_system": "IgG3, monoclonal (Homo sapiens)", "test": "filter", "conditions": "37.5 mM NaCl, 3.75 mM Na citrate, pH 6.0", "values": [{"sequence": "CCTCTTCTTTTTCTTCTC [RAD20]", "Ka": "6.84 log10 M-1"}, {"sequence": "CCTCTTCTTTTTCTTCTCCTTTTTGGAGAAG [RAD2]", "Ka": "6.64 log10 M-1"}, {"sequence": "CCTTCCTTTGGAAGGTTG [RAD23]", "Ka": "5.62 log10 M-1"}, {"sequence": "CTCTCTCTTTTTCTCTCTCTTTTTGAGAGAG [RAD9]", "Ka": "6.62 log10 M-1"}, {"sequence": "GAGAGAGTTTTTGAGAGAGTTTTTCTCTCTC [RAD7]", "Ka": "6.74 log10 M-1"}]}, {"test_system": "IgG3, monoclonal (Homo sapiens)", "test": "filter", "conditions": "control oligo; 37.5 mM NaCl, 3.75 mM Na citrate, pH 6.0", "values": [{"sequence": "CCCTCCCTGGGCTTTTTTTGATTTTTCTTAA [RAD4]", "Ka": "6.66 log10 M-1"}]}, {"test_system": "IgG4, monoclonal (Homo sapiens)", "test": "filter", "conditions": "37.5 mM NaCl, 3.75 mM Na citrate, pH 6.0", "values": [{"sequence": "CCTCTTCTTTTTCTTCTC [RAD20]", "Ka": "7.67 log10 M-1"}, {"sequence": "CCTCTTCTTTTTCTTCTCCTTTTTGGAGAAG [RAD2]", "Ka": "7.08 log10 M-1"}, {"sequence": "CCTTCCTTTGGAAGGTTG [RAD23]", "Ka": "5.97 log10 M-1"}, {"sequence": "CTCTCTCTTTTTCTCTCTCTTTTTGAGAGAG [RAD9]", "Ka": "7.06 log10 M-1"}, {"sequence": "GAGAGAGTTTTTGAGAGAGTTTTTCTCTCTC [RAD7]", "Ka": "7.16 log10 M-1"}]}, {"test_system": "IgG4, monoclonal (Homo sapiens)", "test": "filter", "conditions": "control oligo; 37.5 mM NaCl, 3.75 mM Na citrate, pH 6.0", "values": [{"sequence": "CCCTCCCTGGGCTTTTTTTGATTTTTCTTAA [RAD4]", "Ka": "7.13 log10 M-1"}]}, {"test_system": "IgM, monoclonal (Homo sapiens)", "test": "filter", "conditions": "37.5 mM NaCl, 3.75 mM sodium citrate, pH 6.0", "values": [{"sequence": "CCCTCCCTGGGCTTTTTTTGATTTTTCTTAA [RAD4]", "Ka (log10 Ka (M-1))": 6.89}, {"sequence": "CCTCTTCTTTTTCTTCTC [RAD20]", "Ka (log10 Ka (M-1))": 7.02}, {"sequence": "CCTCTTCTTTTTCTTCTCCTTTTTGGAGAAG [RAD2]", "Ka (log10 Ka (M-1))": 6.73}, {"sequence": "CCTTCCTTTGGAAGGTTG [RAD23]", "Ka (log10 Ka (M-1))": 6.08}, {"sequence": "CTCTCTCTTTTTCTCTCTCTTTTTGAGAGAG [RAD9]", "Ka (log10 Ka (M-1))": 6.79}, {"sequence": "GAGAGAGTTTTTGAGAGAGTTTTTCTCTCTC [RAD7]", "Ka (log10 Ka (M-1))": 6.89}]}]}
